# Experimental data reported in PMC7700444.
# Substrate: O=C(O)C(=O)O
# Experiment: purified protein
# Conditions: 0.5 mM CoA, 5 mM ATP, 10 mM MgCl2, 2 mM DTT, 0.1 M Tris-HCl or NaPO4 pH 8.0, sodium oxalate as substrate
protein,measurement,value
GsAAE3 (Glycine max) (protein) MKDTMETPTTLTTLLRHVAAKFPSRRAISVAAKFDLTHSRLHRLVESAAAQLVSAGVKPGDVVALTFPNTIEFVVMFLAVIRARATAAPLNSAYTAEEFEFYLSDSESKLLLTSPEGNKPAQAAASKLSIPHATASITKAENEEAELSLSLLNHPELNSVNSVESLVNDPDDVALFLHTSGTTSRPKGVPLTQYNLLSSVKNIDSVYRLTESDSTVIVLPLFHVHGLIAGLLSSLGAGAAVALPAAGRFSASAFWKDMIKYSATWYTAVPTIHQIILDRHSSNPEPVYPRLRFIRSCSASLAPVILGKLEEAFGAPVLEAYAMTEASHLMASNPLPQDGAHKSGSVGKPVGQEMGILDESGRVQEAGISGEVCIRGSNVTKGYKNNVAANTASFLFDWFHTGDIGYFDSDGYLHLVGRIKELINRGGEKISPIEVDAVLLSHPEIAQAVAFGVPDAKYGEEIYCAVIPREGSNVDEAEVLRFSKTNLASFKVPKKVFITDSLPKTATGKILRRLVAEHFVSQI,Km,105.10 ± 12.30 µM
